Patent publication US20030092616A1, “STAT6 activation gene” (priority 2001, published 2003)

B1: 349 (nucleic acid, listed as Homo sapiens)
chain: CCCCCCCGAGCGCCGCTCCGGCTGCACCGCGCTCGCTCCGAGTTTCAGGCTCGTGCTAAGCTAGCGCCGTCGTCGTCTCCCTTCAGTCGCCATCATGATTATCTACCGGGACCTCATCAGCCACGATGAGATGTTCTCCGACATCTACAAGATCCGGGAGATCGCGGACGGGTTGTGCCTGGAGGTGGAGGGGAAGATGGTCAGTAGGACAGAAGGTAACATTGATGACTCGCTCATTGGTGGAAATGCCTCCGCTGAAGGCCCCGAGGGCGAAGGTACCGAAAGCACAGTAATCACTGGTGTCGATATTGTCATGAACCATCACCTGCAGGAAACAAGTTTCACAAAAGAAGCCTACAAGAAGTACATCAAAGATTACATGAAATCAATCAAAGGGAAACTTGAAGAACAGAGACCAGAAAGAGTAAAACCTTTTATGACAGGGGCTGCAGAACAAATCAAGCACATCCTTGCTAATTTCAAAAACTACCAGTTCTTTATTGGTGAAAACATGAATCCAGATGGCATGGTTGCTCTATTGGACTACCGTGAGGATGGTGTGACCCCATATATGATTTTCTTTAAGGATGGTTTAGAAATGGAAAAATGTTAACAAATGTGGCAATTATTTTGGATCTATCACCTGTCATCATAACTGGCTTCTGCTTGTCATCCACACAACACCAGGACTTAAGACAAATGGGACTGATGTCATCTTGAGCTCTTCATTTATTTTGACTGTGATTTATTTGGAGTGGAGGCATTGTTTTTAAGAAAAACATGTCATGTAGGTTGTCTAAAAATAAAATGCATTTAAACTCATTTGAGAG
modifications: CDS (95)..(610)
B2: 6 (nucleic acid, listed as Homo sapiens)
chain: TAAAAGAAGAGAAGAGGCTAAAGAAGAAAAGAAGAAAATCAACTTCTTCTTCAAGTGTTTCTTCTGCTGATGAATCAGTGTCTTCATCATCATCCTCTTCCTCTTCTGGTCACAAAAGGCATAAGAAACATAAGAGGAACCGTTCAGAGTCTTCTCGCAGTTCCAGAAGGCATTCATCTAGGGCATCCTCAAATCAGATAGATCAGAATAGGAAAGATGAGTGCTACCCAGTTCCAGCTAATACTTCAGCATCTTTTCTTAACCATAAACAAGAAGTGGAGAAACTACTGGGGAAGCAGGATAGGTTACAGTATGAAAAGACACAGATAAAAGAGAAAGATAGATGCCCTCTCTCTTCATCTTCACTTGAAATACCGGATGATTTTGGAGGTAGGTCTGAAGATCCAAGAGATTTTTATAACAGCTATAAAACCCAAGCAGGTAGTAGCAAAACAGAAAAGCCATATAAATCAGAAAGACATTTTTCCAGTAGAAGAAATTCCTCAGATTCCTTCTGTAGGAATTCAGAGGACAAGATTTATGGTTATAGGAGATTTGAAAAGGATATAGAGGGAAGAAAAGAGCACTATAGAAGGTGGGAACCAGGTTCTGTGAGGCATTCTACCTCACCAGCAAGCTCAGAATACTCTTGGAAGTCAGTTGAGAAATACAAAAAATACGCTCACTCTGGATCACGTGATTTCAGTAGACATGAGCAAAGATACCGTTTAAATACAAATCAAGGAGAATATGAAAGAGAGGACAATTATGGGGAGGATATCAAAACAGAGGTTCCAGAAGAAGATGCACTAAGTAGCAAAGAACACTCAGAAAGCAGTGTTAAGAAAAATTTACCTCAGAATTTACTGAATATATTTAATCAGATAGCTGAATTTGAAAAAGAAAAAGGAAATAAGTCAAAAAATTAATACACCAAGGATATCGGCACCATTACACAAAATGCCATTAAGTGAAGTTTTTGGTTGTATTAGTCATAACAGTTGAGTGCAGAAATCTCTGCTTCTAAAATTATTTGTAGAGATTACAGGAAACAAATGCTTTTAAGTAAGTTTTTCTCAAATTTTGTTTCAGTTCTAGGTCCCTTGTCACAGCTTGGTTTTTAGACTTTTTATGTATATGTTTATGTACAGTATATTACTCTTGACAGTTTGAATTTCTTCACCTAAAGATAATTCTCTGAAAGTACTGTTTCTTCATTCTATTGCGGTATATGAGAATTCCTGGGTGCATCTTATTCTGCTGTTTGAGAGAAAAATTTGTGCATTGAACACTTGGATCATTTTTATAAAAATTAATTTCATTTTCTTTTCTGTTAAATTAAAAATCGTCAGCTTTTGAAAGAT
modifications: CDS (379)..(567)
B3: 397 (nucleic acid, listed as Homo sapiens)
chain: ACAGATGAAACTTTTTAGGTCTCAAAGAAATCTTTACATTTCTGGATTTTCCCTATTTTTTTGGCTAGTTTTGAGACGTCTGGTTACGCTTATTACTCAACTGGCAAAAGAACTGTCAAACAAAGGTGTACTTAAAACTCAAGCAGAAAATACTAACAAGGCTGCCAAAAAATTTATGGAAGAAAACGAAAAACTAAAAAGGATTTTGAAAAGCCATGGTAAAGATGAAGAATGTGTTTTGGAAGCAGAAAATAAAAAACTAGTAGAAGACCAGGAGAAACTGAAAACTGAATTAAGGAAGACTTCAGATGCCCTTTCTAAGGCACAAAATGATGTGATGGAAATGAAGATGCAGTCAGAGAGACTTTCGAAAGAATATGATCAACTCCTGAAAGAACACTCTGAACTTCAGGATCGTTTAGAAAGAGGCAACAAGAAAAGACTGTGAACTTTATAAAAGACACTTGCAATATACTGTGTCAAAATGATAATTTTGTTATGTTAGCCTCTAGAAAATTTAAGTTCAGAAAAATGCACTATGACCGGTTCGTAATTTTTTTAATGCCACACATAGGTTGTATTGTAATGGCATTATCAAAATATTTGATGATGTTTCAGATATATTGCAAAGTCTGTATTCCAGCTCTTAAGAAAAATATAAGCATGTTAAATACCATATTTACATATTGATAATGTCATTGGTATATGGTGGCTGTTTACCAATAAAAGGAAAAAATTCATT
modifications: CDS (5)..(445)
B4: 117 (nucleic acid, listed as Homo sapiens)
chain: GAGCGGCGATGCCGGGGCGGCGGCGCCCGAGTCCGGAGCCCGAGCCCGAAGAGGAGCCGCCCCGGCCCCGCGCCCCCCCGGGAGCTCCGGGCCCTGGGCCTGGTTCGGGAGCCCCCGGCAGCCAAGAGGAGGAGGAGGAGCCGGGACTGGTCGAGGGTGACCCGGGGGACGGCGCCATTGAGGACCCGGAGCTGGAAGCTATCAAAGCTCGAGTCAGGGAGATGGAGGAAGAAGCTGAGAAGCTAAAGGAGCTACAGAACGAGGTAGAGAAGCAGATGAATATGAGTCCACCTCCAGGCAATGCTGGCCCGGTGATCATGTCCATTGAGGAGAAGATGGAGGCTGATGCCCGTTCCATCTATGTTGGCAATGTGGACTATGGTGCAACAGCAGAAGAGCTGGAAGCTCACTTTCATGGCTGTGGTTCAGTCAACCGTGTTACCATACTGTGTGACAAATTTAGTGGCCATCCCAAAGGGTTTGCGTATATAGAGTTCTCAGACAAAGAGTCAGTGAGGACTTCCTTGGCCTTAGATGAGTCCCTATTTAGAGGAAGGCAAATCAAGGTGATCCCAAAACGAACCAACAGACCAGGCATCAGCACAACAGACCGGGGTTTTCCACGAGCCCGCTACCGCGCCCGGACCACCAACTACAACAGCTCCCGCTCTCGATTCTACAGTGGTTTTAACAGCAGGCCCCGGGGTCGCGTCTACAGGGGCCGGGCTAGAGCGACATCATGGTATTCCCCTTACTAAAAAAAGTGTGTATTAGGAGGAGAGAGAGGAAAAAAAGAGGAAAGAAGGAAAAAAAAAAGAATTAAAAAAAAAAAAAAGAAAAAC
modifications: CDS (9)..(755)
B5: 115 (nucleic acid, listed as Homo sapiens)
chain: GTTTTCCGCCGTCCGTCCGGGCGGGCGGGCGCAGAGTCCCGCGGGCGGCGCGGAAGCGGCGGCGGCGCGGCCGGGGCAGCCATGTCGCCATTGTCTGCGGCGCGGGCGGCCCTGCGGGTCTACGCGGTAGGCGCCGCGGTGATCCTGGCGCAGCTGCTGCGGCGCTGCCGCGGGGGCTTCCTGGAGCCAGTTTTCCCCCCACGACCTGACCGTGTCGCTATAGTGACGGGAGGGACAGATGGCATTGGCTATTCTACAGCGAAGCATCTGGCGAGACTTGGCATGCATGTTATCATAGCTGGAAATAATGACAGCAAAGCCAAACAAGTTGTAAGCAAAATAAAAGAAGAAACCTTGAACGACAAAGTGGAATTTTTATACTGTGACTTGGCTTCCATGACTTCCATCCGGCAGTTTGTGCAGAAGTTCAAGATGAAGAAGATTCCTCTCCATGTCCTGATCAACAATGCTGGGGTGATGATGGTCCCTCAGAGGAAAACCAGAGATGGATTCGAAGAACATTTCGGCCTGAACTACCTAGGGCACTTCCTGCTGACCAACCTTCTCTTGGATACGCTGAAAGAGTCTGGGTCCCCTGGCCACAGTGCGAGGGTGGTCACCGTCTCCTCTGCCACCCATTACGTCGCTGAGCTGAACATGGATGACCTTCAGAGCAGTGCCTGCTACTCACCCCACGCAGCCTACGCCCAGAGCAAGCTGGCCCTTGTCCTGTTCACCTACCACCTCCAGCGGCTGCTGGCGGCTGAGGGAAGCCACGTGACCGCCAACGTGGTGGACCCCGGGGTGGTCAACACGGACCTCTACAAGCACGTGTTCTGGGCCACCCGTCTGGCGAAGAAGCTTCTCGGCTGGTTGCTTTTCAAGACCCCCGATGAAGGAGCGTGGACTTCCATCTACGCAGCAGTCACCCCAGAGCTGGAAGGAGTTGGTGGCCGTTACCTATACAACGAGAAAGAGACCAAGTCCCTCCACGTCACCTACAACCAGAAACTGCAGCAGCAGCTGTGGTCTAAGAGTTGTGAGATGACTGGGGTCCTTGATGTGACCCTGTGATATCCTGTCTCAGGATAGCTGCTGCCCCAAGAAACACATTGCACCTGCCAATAGCTTGTGGGTCTGTGAAGACTGCGGTGTTTGAGTTTCTCACACCCACCTGCCCACAGGGCTCTGTCCTCTAGTTTTGAGACAGCTGCCTCAACCTCTGCAGAACTTCAAGAAGCCAAATAAACATTTTGGAGGATAATCACCCCAAGTGGTCTTCAACCATAAACTTTGTGATTCCAAAGTGCCCAGTTGTCACAGGTGCCATAAATAATTACATTTTCCAACAT
modifications: CDS (82)..(1071)

test system: STAT6; assay: Screening of full-length cDNA clones for promotion of STAT6 activation (luciferase reporter N4×8-luc); assay type: cell-based; settings: NIH3T3 cells cotransfected with N4×8-luc reporter and cDNA plasmid; 48 h culture, then mouse IL-4 0.5 ng/ml for 6 h
How it was run: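 NIH3T3 cells cotransfected with STAT6-responsive N4×8-luc reporter (100 ng) and full-length cDNA, cultured 48 h, then given mouse IL-4 at 0.5 ng/ml final for 6 h. Luciferase activity compared with reporter plus null-vector control.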

Row | Molecule | Activity = (luciferase activity of the gene of each SEQ ID NO:)/(luciferase activity of pME18S-FL3)
1 | B1 | 24.3
2 | B2 | 127.5
3 | B3 | 32.6
4 | B4 | 10.1
5 | B5 | 8.6
